Results on one molecule are retold here after publication PMC4615246 (Nucleus, 2015).

What all share (experiment): LacI/LacO array recruitment in cells
The target of experiment [1] is T1, LacI-CFP-Nup133 (human, UniProt Q8WUM0 1-1156).
T1 sequence: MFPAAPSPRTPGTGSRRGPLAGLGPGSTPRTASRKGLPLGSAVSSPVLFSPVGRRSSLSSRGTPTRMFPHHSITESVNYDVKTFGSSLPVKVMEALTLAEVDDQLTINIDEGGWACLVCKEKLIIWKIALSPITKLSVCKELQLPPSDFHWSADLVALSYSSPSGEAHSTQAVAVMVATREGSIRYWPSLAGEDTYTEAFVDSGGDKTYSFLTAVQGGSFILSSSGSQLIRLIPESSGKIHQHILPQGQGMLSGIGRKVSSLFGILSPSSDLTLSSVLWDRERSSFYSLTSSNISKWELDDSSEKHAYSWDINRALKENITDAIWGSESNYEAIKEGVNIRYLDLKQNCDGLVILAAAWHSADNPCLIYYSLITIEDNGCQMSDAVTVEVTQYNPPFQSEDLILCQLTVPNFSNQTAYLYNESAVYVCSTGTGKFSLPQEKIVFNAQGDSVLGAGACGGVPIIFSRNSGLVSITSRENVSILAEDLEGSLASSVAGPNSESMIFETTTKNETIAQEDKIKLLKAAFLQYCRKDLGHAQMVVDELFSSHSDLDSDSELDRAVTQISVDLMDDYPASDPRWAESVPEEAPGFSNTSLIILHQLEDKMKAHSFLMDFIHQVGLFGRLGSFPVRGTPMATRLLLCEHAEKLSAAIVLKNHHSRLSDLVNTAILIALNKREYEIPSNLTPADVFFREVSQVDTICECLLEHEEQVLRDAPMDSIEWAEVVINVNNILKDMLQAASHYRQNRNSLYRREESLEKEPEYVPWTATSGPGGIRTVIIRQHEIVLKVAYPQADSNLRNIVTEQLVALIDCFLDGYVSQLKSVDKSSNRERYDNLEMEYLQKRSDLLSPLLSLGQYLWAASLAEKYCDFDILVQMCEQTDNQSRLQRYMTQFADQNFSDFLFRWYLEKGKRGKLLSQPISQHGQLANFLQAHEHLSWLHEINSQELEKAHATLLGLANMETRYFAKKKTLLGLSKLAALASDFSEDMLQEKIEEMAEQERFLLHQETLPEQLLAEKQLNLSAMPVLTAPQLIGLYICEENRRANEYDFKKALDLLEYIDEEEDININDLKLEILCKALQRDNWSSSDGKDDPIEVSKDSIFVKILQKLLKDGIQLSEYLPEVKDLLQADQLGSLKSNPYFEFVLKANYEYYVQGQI

The target of experiment [2] is T2, LacI-CFP-Nup153 (human, UniProt P49790 1-1475).
T2 sequence: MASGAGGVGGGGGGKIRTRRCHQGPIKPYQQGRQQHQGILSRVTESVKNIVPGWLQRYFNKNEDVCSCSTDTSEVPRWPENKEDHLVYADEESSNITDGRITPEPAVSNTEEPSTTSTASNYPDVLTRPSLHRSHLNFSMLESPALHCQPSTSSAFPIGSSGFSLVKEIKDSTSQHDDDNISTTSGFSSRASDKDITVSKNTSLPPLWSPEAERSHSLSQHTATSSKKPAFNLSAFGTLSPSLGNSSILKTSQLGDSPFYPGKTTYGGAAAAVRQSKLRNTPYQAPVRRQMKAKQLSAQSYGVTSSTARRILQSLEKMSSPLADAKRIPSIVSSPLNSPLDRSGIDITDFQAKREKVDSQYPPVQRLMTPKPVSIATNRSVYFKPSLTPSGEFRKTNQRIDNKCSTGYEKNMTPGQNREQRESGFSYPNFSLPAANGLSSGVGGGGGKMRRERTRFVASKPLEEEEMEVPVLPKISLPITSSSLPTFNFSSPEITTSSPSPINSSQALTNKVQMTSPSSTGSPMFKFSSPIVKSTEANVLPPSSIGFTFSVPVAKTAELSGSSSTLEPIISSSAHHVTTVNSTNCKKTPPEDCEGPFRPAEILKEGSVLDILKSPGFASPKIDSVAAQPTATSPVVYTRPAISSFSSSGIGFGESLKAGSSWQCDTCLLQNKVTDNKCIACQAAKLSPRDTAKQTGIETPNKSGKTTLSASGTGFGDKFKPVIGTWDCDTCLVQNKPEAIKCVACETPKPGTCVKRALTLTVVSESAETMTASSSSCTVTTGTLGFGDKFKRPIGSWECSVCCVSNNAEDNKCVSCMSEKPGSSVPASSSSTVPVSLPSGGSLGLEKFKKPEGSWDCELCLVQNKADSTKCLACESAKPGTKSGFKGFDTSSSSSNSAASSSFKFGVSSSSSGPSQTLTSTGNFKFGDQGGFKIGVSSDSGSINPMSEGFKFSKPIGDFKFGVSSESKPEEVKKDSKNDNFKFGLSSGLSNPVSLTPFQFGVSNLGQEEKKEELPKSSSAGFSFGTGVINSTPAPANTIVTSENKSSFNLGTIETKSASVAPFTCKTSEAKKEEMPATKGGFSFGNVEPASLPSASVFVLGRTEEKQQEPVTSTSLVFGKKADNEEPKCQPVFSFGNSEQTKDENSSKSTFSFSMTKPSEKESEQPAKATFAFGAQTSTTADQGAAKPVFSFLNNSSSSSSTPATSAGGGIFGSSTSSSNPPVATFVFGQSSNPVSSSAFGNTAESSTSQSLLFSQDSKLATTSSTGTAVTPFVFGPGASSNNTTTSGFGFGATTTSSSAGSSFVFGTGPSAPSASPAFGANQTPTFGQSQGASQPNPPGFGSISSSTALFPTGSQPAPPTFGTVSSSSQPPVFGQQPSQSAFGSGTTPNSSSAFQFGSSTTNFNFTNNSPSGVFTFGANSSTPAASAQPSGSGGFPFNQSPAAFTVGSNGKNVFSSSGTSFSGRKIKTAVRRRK

Experiment [3] concerns the target T3, LacI-CFP-Nup50 (human, UniProt Q9UKX7 1-468).
T3 sequence: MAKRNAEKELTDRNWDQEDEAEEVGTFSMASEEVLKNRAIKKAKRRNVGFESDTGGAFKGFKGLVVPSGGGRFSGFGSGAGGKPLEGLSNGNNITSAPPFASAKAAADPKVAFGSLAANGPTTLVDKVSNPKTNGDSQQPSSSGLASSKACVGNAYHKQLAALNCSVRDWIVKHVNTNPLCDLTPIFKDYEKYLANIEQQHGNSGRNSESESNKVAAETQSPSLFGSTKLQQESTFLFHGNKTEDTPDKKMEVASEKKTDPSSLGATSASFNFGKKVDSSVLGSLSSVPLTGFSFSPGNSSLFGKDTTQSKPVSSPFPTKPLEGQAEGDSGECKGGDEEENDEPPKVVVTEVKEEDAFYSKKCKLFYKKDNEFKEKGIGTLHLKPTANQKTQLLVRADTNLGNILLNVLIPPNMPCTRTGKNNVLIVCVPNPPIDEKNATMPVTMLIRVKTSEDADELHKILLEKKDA

The target in experiment [4] is LacI-CFP-Nup214 (human, UniProt P35658 1-2090).
Chain of LacI-CFP-Nup214 (P35658 whole entry): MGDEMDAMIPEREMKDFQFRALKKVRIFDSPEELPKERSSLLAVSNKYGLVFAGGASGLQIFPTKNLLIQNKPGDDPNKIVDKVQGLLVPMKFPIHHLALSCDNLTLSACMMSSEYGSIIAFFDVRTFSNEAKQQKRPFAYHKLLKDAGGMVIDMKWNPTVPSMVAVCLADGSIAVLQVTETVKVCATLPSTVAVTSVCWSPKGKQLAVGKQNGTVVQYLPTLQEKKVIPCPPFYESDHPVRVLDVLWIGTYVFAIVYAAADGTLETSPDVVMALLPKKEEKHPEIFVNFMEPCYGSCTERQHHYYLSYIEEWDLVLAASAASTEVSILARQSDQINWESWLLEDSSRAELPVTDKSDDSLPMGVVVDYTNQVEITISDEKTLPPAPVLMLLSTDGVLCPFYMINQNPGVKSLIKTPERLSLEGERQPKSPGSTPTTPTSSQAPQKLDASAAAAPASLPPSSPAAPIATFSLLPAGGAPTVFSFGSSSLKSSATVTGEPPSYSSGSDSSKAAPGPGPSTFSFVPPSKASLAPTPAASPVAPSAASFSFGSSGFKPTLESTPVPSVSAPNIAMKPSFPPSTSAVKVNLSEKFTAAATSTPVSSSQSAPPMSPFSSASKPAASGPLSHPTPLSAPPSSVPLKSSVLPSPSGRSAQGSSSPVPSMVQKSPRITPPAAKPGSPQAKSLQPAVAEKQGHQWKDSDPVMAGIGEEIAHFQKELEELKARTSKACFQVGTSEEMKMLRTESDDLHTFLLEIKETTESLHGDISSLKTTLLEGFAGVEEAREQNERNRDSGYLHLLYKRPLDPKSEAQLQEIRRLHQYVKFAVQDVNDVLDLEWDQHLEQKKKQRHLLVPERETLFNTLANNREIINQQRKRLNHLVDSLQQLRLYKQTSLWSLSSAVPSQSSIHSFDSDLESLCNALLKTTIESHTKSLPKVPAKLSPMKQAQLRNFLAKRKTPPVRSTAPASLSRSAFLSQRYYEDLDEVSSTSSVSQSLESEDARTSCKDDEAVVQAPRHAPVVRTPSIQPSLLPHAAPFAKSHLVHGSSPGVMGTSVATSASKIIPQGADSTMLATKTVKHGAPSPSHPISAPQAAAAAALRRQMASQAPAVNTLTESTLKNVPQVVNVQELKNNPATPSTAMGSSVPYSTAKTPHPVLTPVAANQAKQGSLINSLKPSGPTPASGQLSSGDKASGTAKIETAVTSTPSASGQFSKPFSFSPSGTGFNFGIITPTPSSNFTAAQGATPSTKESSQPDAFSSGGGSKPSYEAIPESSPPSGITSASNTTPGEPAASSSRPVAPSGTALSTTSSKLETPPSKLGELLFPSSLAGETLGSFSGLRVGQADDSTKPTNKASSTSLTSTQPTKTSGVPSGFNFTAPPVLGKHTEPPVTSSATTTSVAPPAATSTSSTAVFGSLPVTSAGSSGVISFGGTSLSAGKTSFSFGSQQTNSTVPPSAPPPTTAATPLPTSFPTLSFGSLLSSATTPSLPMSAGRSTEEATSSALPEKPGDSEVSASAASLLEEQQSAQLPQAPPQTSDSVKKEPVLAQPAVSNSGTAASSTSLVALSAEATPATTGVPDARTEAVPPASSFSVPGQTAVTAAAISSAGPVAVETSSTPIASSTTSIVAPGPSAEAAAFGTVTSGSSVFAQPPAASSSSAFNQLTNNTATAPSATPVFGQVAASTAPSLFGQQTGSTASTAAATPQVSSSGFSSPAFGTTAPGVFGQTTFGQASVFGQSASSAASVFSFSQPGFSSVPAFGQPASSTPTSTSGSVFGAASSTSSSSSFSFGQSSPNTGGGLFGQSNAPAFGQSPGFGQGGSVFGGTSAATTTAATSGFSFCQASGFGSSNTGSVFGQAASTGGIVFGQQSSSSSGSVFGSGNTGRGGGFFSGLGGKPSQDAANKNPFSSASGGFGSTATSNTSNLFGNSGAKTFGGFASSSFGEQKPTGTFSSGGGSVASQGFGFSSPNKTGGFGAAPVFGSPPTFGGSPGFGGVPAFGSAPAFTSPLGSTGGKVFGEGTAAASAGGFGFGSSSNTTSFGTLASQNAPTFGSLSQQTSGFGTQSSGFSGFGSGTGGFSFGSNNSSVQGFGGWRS

B1: Nup98 (endogenous) (natural protein)
chain: MFNKSFGTPFGGGTGGFGTTSTFGQNTGFGTTSGGAFGTSAFGSSNNTGGLFGNSQTKPGGLFGTSSFSQPATSTSTGFGFGTSTGTANTLFGTASTGTSLFSSQNNAFAQNKPTGFGNFGTSTSSGGLFGTTNTTSNPFGSTSGSLFGPSSFTAAPTGTTIKFNPPTGTDTMVKAGVSTNISTKHQCITAMKEYESKSLEELRLEDYQANRKGPQNQVGAGTTTGLFGSSPATSSATGLFSSSTTNSGFAYGQNKTAFGTSTTGFGTNPGGLFGQQNQQTTSLFSKPFGQATTTQNTGFSFGNTSTIGQPSTNTMGLFGVTQASQPGGLFGTATNTSTGTAFGTGTGLFGQTNTGFGAVGSTLFGNNKLTTFGSSTTSAPSFGTTSGGLFGNKPTLTLGTNTNTSNFGFGTNTSGNSIFGSKPAPGTLGTGLGAGFGTALGAGQASLFGNNQPKIGGPLGTGAFGAPGFNTTTATLGFGAPQAPVALTDPNASAAQQAVLQQHINSLTYSPFGDSPLFRNPMSDPKKKEERLKPTNPAAQKALTTPTHYKLTPRPATRVRPKALQTTGTAKSHLFDGLDDDEPSLANGAFMPKKSIKKLVLKNLNNSNLFSPVNRDSENLASPSEYPENGERFSFLSKPVDENHQQDGDEDSLVSHFYTNPIAKPIPQTPESAGNKHSNSNSVDDTIVALNMRAALRNGLEGSSEETSFHDESLQDDREEIENNSYHMHPAGIILTKVGYYTIPSMDDLAKITNEKGECIVSDFTIGRKGYGSIYFEGDVNLTNLNLDDIVHIRRKEVVVYLDDNQKPPVGEGLNRKAEVTLDGVWPTDKTSRCLIKSPDRLADINYEGRLEAVSRKQGAQFKEYRPETGSWVFKVSHF
As for B1, the “percent of transfected cells showing colocalization” value stood at 70% in experiment [1], 11% in experiment [2], 11% in experiment [3] and 90% in experiment [4].
